Test results reported in the Human Domainome abundance scans (Beltran et al. 2025).
± gives the uncertainty stated by the source.

Assay: abundance fitness (aPCA) (normalised: wild type 0, dead -1); higher = more abundant; growth selection in yeast, the domain comes from the species named
Settings: Homo sapiens
With “BAG family molecular chaperone regulator 3 S14L, O95817” the abundance fitness was 0.091 ± 0.11. In the case of “BAG family molecular chaperone regulator 3 H42P, O95817”, the abundance fitness is reported as -0.788 ± 0.13. In the case of “BAG family molecular chaperone regulator 3 T46H, O95817”, the abundance fitness is reported as -0.571 ± 0.4. “BAG family molecular chaperone regulator 3 V54P, O95817” gave an abundance fitness of -0.832 ± 0.42. “SAFB-like transcription modulator V47M, Q9NWH9” gave an abundance fitness of 0.013 ± 0.061. “SAFB-like transcription modulator D24C, Q9NWH9” showed an abundance fitness of -0.226 ± 0.036. Work on “BAG family molecular chaperone regulator 3 G35L, O95817” yielded an abundance fitness of -0.184 ± 0.14. Work on “SAFB-like transcription modulator K45I, Q9NWH9” yielded an abundance fitness of -0.513 ± 0.079. In the case of “SAFB-like transcription modulator T46F, Q9NWH9”, the abundance fitness is reported as -0.358 ± 0.088. With “SAFB-like transcription modulator E57D, Q9NWH9” the abundance fitness was -0.164 ± 0.086. Work on “BAG family molecular chaperone regulator 3 D31A, O95817” yielded an abundance fitness of -0.22 ± 0.12. Work on “SAFB-like transcription modulator G60R, Q9NWH9” yielded an abundance fitness of -0.238 ± 0.033. Work on “BAG family molecular chaperone regulator 3 T47I, O95817” yielded an abundance fitness of -0.468 ± 0.23. For “BAG family molecular chaperone regulator 3 T47L, O95817”, the abundance fitness was -0.613 ± 0.28. Substance “BAG family molecular chaperone regulator 3 D20K, O95817” has an abundance fitness of -0.429 ± 0.23. Substance “SAFB-like transcription modulator D62A, Q9NWH9” has an abundance fitness of -0.386 ± 0.045. For “BAG family molecular chaperone regulator 3 D51K, O95817”, the abundance fitness was -0.037 ± 0.3. With “SAFB-like transcription modulator L39N, Q9NWH9” the abundance fitness was -0.596 ± 0.12. “BAG family molecular chaperone regulator 3 P55A, O95817” gave an abundance fitness of 0.013 ± 0.078. With “BAG family molecular chaperone regulator 3 D20L, O95817” the abundance fitness was -0.495 ± 0.088. Substance “BAG family molecular chaperone regulator 3 N16F, O95817” has an abundance fitness of -0.219 ± 0.24. “SAFB-like transcription modulator G60S, Q9NWH9” gave an abundance fitness of -0.308 ± 0.041. For “SAFB-like transcription modulator D64S, Q9NWH9”, the abundance fitness was -0.113 ± 0.035. “BAG family molecular chaperone regulator 3 I28D, O95817” showed an abundance fitness of -0.503 ± 0.18. For “SAFB-like transcription modulator T46R, Q9NWH9”, the abundance fitness was -0.163 ± 0.064. Work on “BAG family molecular chaperone regulator 3 S44Y, O95817” yielded an abundance fitness of -0.485 ± 0.39. Work on “BAG family molecular chaperone regulator 3 E27D, O95817” yielded an abundance fitness of -0.472 ± 0.35. In the case of “SAFB-like transcription modulator L39W, Q9NWH9”, the abundance fitness is reported as -0.591 ± 0.084. In the case of “BAG family molecular chaperone regulator 3 Q11G, O95817”, the abundance fitness is reported as 0.771 ± 0.065. Work on “BAG family molecular chaperone regulator 3 G58I, O95817” yielded an abundance fitness of 0.138 ± 0.28. With “SAFB-like transcription modulator K21Q, Q9NWH9” the abundance fitness was -0.336 ± 0.052. With “BAG family molecular chaperone regulator 3 I30V, O95817” the abundance fitness was 0.207 ± 0.092. “BAG family molecular chaperone regulator 3 G58P, O95817” showed an abundance fitness of -0.032 ± 0.29. Substance “BAG family molecular chaperone regulator 3 P32F, O95817” has an abundance fitness of -0.511 ± 0.47. With “SAFB-like transcription modulator I56H, Q9NWH9” the abundance fitness was -0.797 ± 0.19. In the case of “SAFB-like transcription modulator Q54R, Q9NWH9”, the abundance fitness is reported as -0.106 ± 0.045. Work on “SAFB-like transcription modulator G19T, Q9NWH9” yielded an abundance fitness of -0.406 ± 0.34. “BAG family molecular chaperone regulator 3 E57Q, O95817” showed an abundance fitness of -0.46 ± 0.33. “SAFB-like transcription modulator K35E, Q9NWH9” gave an abundance fitness of -0.013 ± 0.083. With “BAG family molecular chaperone regulator 3 F38V, O95817” the abundance fitness was -0.092 ± 0.14. “SAFB-like transcription modulator D62K, Q9NWH9” gave an abundance fitness of -0.531 ± 0.062. Substance “BAG family molecular chaperone regulator 3 F39W, O95817” has an abundance fitness of -0.42 ± 0.19. “SAFB-like transcription modulator E67W, Q9NWH9” gave an abundance fitness of -0.27 ± 0.037. With “BAG family molecular chaperone regulator 3 R45F, O95817” the abundance fitness was -0.4 ± 0.087. Substance “SAFB-like transcription modulator R51W, Q9NWH9” has an abundance fitness of -1.1 ± 0.085. Substance “BAG family molecular chaperone regulator 3 S44R, O95817” has an abundance fitness of -0.335 ± 0.08. With “SAFB-like transcription modulator L30H, Q9NWH9” the abundance fitness was -0.902 ± 0.17. Work on “SAFB-like transcription modulator V47S, Q9NWH9” yielded an abundance fitness of -0.152 ± 0.048. Substance “BAG family molecular chaperone regulator 3 I30W, O95817” has an abundance fitness of 0.13 ± 0.12. “SAFB-like transcription modulator K35W, Q9NWH9” showed an abundance fitness of -0.163 ± 0.077. Work on “BAG family molecular chaperone regulator 3 I28S, O95817” yielded an abundance fitness of 0.183 ± 0.083. “BAG family molecular chaperone regulator 3 D31C, O95817” gave an abundance fitness of -0.334 ± 0.074. Work on “BAG family molecular chaperone regulator 3 T34H, O95817” yielded an abundance fitness of -0.495 ± 0.48. For “SAFB-like transcription modulator K45D, Q9NWH9”, the abundance fitness was -0.208 ± 0.037. “SAFB-like transcription modulator G61D, Q9NWH9” gave an abundance fitness of -0.229 ± 0.056. Work on “SAFB-like transcription modulator L68C, Q9NWH9” yielded an abundance fitness of -0.092 ± 0.097. In the case of “SAFB-like transcription modulator V27L, Q9NWH9”, the abundance fitness is reported as -0.21 ± 0.082. “SAFB-like transcription modulator V47L, Q9NWH9” gave an abundance fitness of -0.125 ± 0.038. “SAFB-like transcription modulator G61T, Q9NWH9” showed an abundance fitness of -0.296 ± 0.046. “BAG family molecular chaperone regulator 3 T46K, O95817” gave an abundance fitness of -0.435 ± 0.33. With “BAG family molecular chaperone regulator 3 P21Y, O95817” the abundance fitness was -0.152 ± 0.21. For “SAFB-like transcription modulator R26L, Q9NWH9”, the abundance fitness was -0.131 ± 0.078. With “BAG family molecular chaperone regulator 3 P23F, O95817” the abundance fitness was -0.697 ± 0.44. With “SAFB-like transcription modulator I41D, Q9NWH9” the abundance fitness was -0.457 ± 0.11. “SAFB-like transcription modulator I41K, Q9NWH9” showed an abundance fitness of -0.336 ± 0.11. For “SAFB-like transcription modulator N65G, Q9NWH9”, the abundance fitness was -0.365 ± 0.052. “BAG family molecular chaperone regulator 3 G17I, O95817” showed an abundance fitness of 0.73 ± 0.092. In the case of “SAFB-like transcription modulator D64E, Q9NWH9”, the abundance fitness is reported as -0.038 ± 0.034. For “SAFB-like transcription modulator K21V, Q9NWH9”, the abundance fitness was -0.375 ± 0.04. For “BAG family molecular chaperone regulator 3 N50H, O95817”, the abundance fitness was -0.166 ± 0.19.
